The data set in a line: soluble on expression in E. coli; label from the status in PepcDB or PDB records.
Regarding “AKSVVSHSLTTLGVEVSKPPPQHDKIEASEPSFPLHESILKVVEEEWQQIDRQLPSVACRYPVSSIEAARILSVPKVDDEILGFISEATPAAATQASSTESCDKHLDLALCRSYEAAASALQIAAHTAFVAKSLQADISQAAQIINSDPSDAQQALRILNRTYDAASYLCDAAFDEVRMSACAMGSSTMGRRYLWLKDCKISPASKNKLTVAPFKGGTLFGGEVHKVIKKRGNKQ”, the “soluble on expression in E. coli” value was “soluble”.

Regarding “AKVATGTDILSAASNVSLQKARTWDEGVESKFSTTPVNDIFKDKKVVIFGLPGAYTGVCSSKHVPPYKHNIDKFKAKGVDSVICVAINDPYTVNAWAEKIQAKDAIEFYGDFDGSFHKSLELTTDLSAGLLGIRSERWSAYVVDGKVKALNVEESPSDVKVSGAETILGQI”, the “soluble on expression in E. coli” value is recorded as “soluble”.

As to “ALGVPFFSCQRGYKGVWRGDGIMQTTCPCGAQITGHVKNGSMRIVGPRTCSNTWHGTFPINAYTTGPCTPSPAPNYSRALWRVAAEEYVEVTRVGDFHYVTGMTTDNVKCPCQVPAPEFFTEVDGVRLHRYAPACKPLLREEVTFLVGLNQYLVGSQLPCEPEPDVAVLTSMDDDDK”, the “soluble on expression in E. coli” value is given as “soluble”. Next, “ALMGGIVDVEGAQNSAEVEELARFAVDEHNKKENALLQFSRLVKAKQQVVSGIMHHLTVEVIEGGKKKVYEAKVWVQAWLNSKKLHEFSPI”: “soluble”.

For “ANQLRELKQTHTYTVFGYTDGGFAVISADDLAPELLGVSESNFVETDNPSFKWWLKAIDEVITNAVKSNKPLNVIKPDPSKYAAEVSTLLTTTWGQQMPYNKLLPKTKKGRLITGAVATATAQVLNYFKYPVRGIGSHTVHYPANDPSGVAISADFGNTTYDWANMKDNYSGNYTEAEANAVATLMLHCGVASEMQYGGPNEGSGAYMTDCAAGLRTYFGFTDAEYITRANYTDEQWMDIVFSELTKGHPLIYGGVSPGSMGQDAGHAFVIDGYNKAGLVSVNWGWNGDVDGYYKIDLLNPGNMYSFTAEQDMVRGVYGKP”, the “soluble on expression in E. coli” value is “soluble”. The result for “ANQQTSGKVLYEGKEFDYVFSIDVNEGGPSYKLPYNTSDDPWLTAYNFLQKNDLNPMFLDQVAKFIIDNTKGQMLGLGNP” reads “soluble”; that for “APKASLRLGFSEYSRISNLIVLHLRKVEEEEDESALKRSELVNWYLKEIESEIDSEEELINKKRIIEKVIHRLTHYDHVLIELTQAGLKGSTEGSESYEEDPYLVVNPNYLLED”, “soluble”. The result for “APSCPAGSLCTYSGTGLSGARTVIPASDMEKAGTDGVKLPASARSFANGTHFTLRYGPARKVTCVRFPCYQYATVGKVAPGAQLRSLPSPGATVTVGQDLGD” reads “soluble”. Next, “APVISQISKDVVASVGDSVEFNCTVEEVGQLSVSWAKRPSESDTNSVVLSMRNILSLPDQRYNVTVTEGPKTGSAIYTFRIQNIEVSDMGPYECQVLVSATEKVTKKLSLQIKTPPVIAENTPKSTLVTEGQNLELTCHANGFPKPTISWAREHNAVMPAGGHLLAEPTLRIRSVHRMDRGGYYCIAQNGEGQPDKRLIRVEVEFRPQIAVQRPKIAQMVSHSAELECSVQGYPAPTVVWHKNGVPLQSSRHHEVANTASSSGTTTSVLRIDSVGEEDFGDYYCNATNKLGHADARLHLFQTVIPVPSLS”: “soluble”. Consider “AQELYKNENAPVHERVMDLISRLTVEEKISLLRATSPGIPRLGIDKYYHGNEALHGVVRPGRFTVFPQAIGLAATWNPELQKRVATVISDEARARWNELDQGREQKEQFSDVLTFWSPTVNMARDPRWGRTPETYGEDPFLSGIMGTAFVNGLQGDDPHYLKIVSTPKHFAANNEEHNRFVCNPQISEKQLREYYFPAFEMCVKEGKAASIMSAYNALNDVPCTLNPWLLQKVLRQDWGFQGYVVSDCGGPALLVNAHKYVKTKEAAATLSIKAGLDLECGDDVYDGPLLNAYKQYMVSDADIDSAAYHVLTARMKLGLFDS”, for which the “soluble on expression in E. coli” value is recorded as “not soluble”. In the case of “AQGLQARFQLLRVLEVPADDAVAKGLEISFGEPVALIERLGLADEEPISVGSGYFPLKRFPDFLEPENIKILQEQQSISQFLQQVYGCDHIRRSTCVSARLVQPQDAKWLQIPLNQPILLAESVNVDQAGNVIEYGVTRLRGDRME”, the “soluble on expression in E. coli” value is “not soluble”. The result for “AQGRQPRTETLHAERRAAGAWLAKRMGLEDSAPVYFLQRRRWVDERPVLIELIALDAGWCPGLLDHDLDTSLMSLLRERFGLQPTRCQLAMHPTALNAAQAEPLQLAPGSPALYLERLSYAEGQRVVEFDQEFWRPDALEIVLDAAYPGA” reads “soluble”. The result for “AQKSVKISDDISITQLSDKVYTYVSLAEIEGWGMVPSNGMIVINNHQAALLDTPINDAQTEMLVNWVTDSLHAKVTTFIPNHWHGDCIGGLGYLQRKGVQSYANQMTIDLAKEKGLPVPEHGFTDSLTVSLDGMPLQCYYLGGGHATDNIVVWLPTENILFGGCMLKDNQATSIGNISDADVTAWPKTLDKVKAKFPSARYVVPGHGDYGGTELIEHTKQIVNQYIESTSKP” reads “soluble”. The result for “ARVDQTPRIATKETGESLTINCVLRDTACALDSTNWYRTKLGSTKEQTISIGGRYSETVDEGSNSASLTIRDLRVEDSGTYKCKAYRRCAFNTGVGYKEGAGTVLTVK” reads “soluble”.

With “ASDHQTQAGKPQPLNPKIIIFEQENFQGHSHELSGPCPNLKETGMEKAGSVLVQAGPWVGYEQANCKGEQFVFEKGEYPRWDSWTSSRRTDSLSSLRPIKVDSQEH”, the “soluble on expression in E. coli” value was “soluble”.

Take “ASMTGGQQMGRGSGPMLIEFNIPVDLKLVEQQNPKVKLGGRYTPMDGASVHKMALLVPFRDRFEELLQFVPHMTAFLKRQGVAHHIFVLNQVDRFRFNRASLINVGFQFASDVYDYIAMHDVDLLPLNDNLLYEYPSSLGPLHIAGPKLHPKYHYDNFVGGILLVRREHFKQMNGMSNQYWGWGLEDDEFFVRIRDAGLQVTRPQNIKTGTNDTFSHIHNRYHRKRDTQKCFNQKEMTRKRDHKTGLDNVKYKILKVHEMLIDQVPVTILNILLDCDVNKTPWCDCS”: the “soluble on expression in E. coli” value was “soluble”. The result for “ASVKAVGRVCYSALPSQAHDTLDLIDEGGPFPYSQDGVVFQNREGLLPAHSTGYYHEYTVITPGSPTRGARRIITGQQWQEDYYTADHYASFRRVDFAC” reads “soluble”; that for “ATADPGVRAMDYQQATDVVIARGLSQRGVPFSWAGGGINGPTRGTGTGANTVGFDASGLMQYAYAGAGIKLPRSSGAMYRVGQKILPQQARKGDLIFYGPEGTQSVAMYLGNNQMLEVGDVVQVSPVRTAGMAPYMVRVLGT”, “soluble”; that for “ATGWNNALGHTAANEEPQEEASSQTTSIHFPLDYKQWQEEQDINLLNRALEEAKFNQRQAAELLGLSYHQLRGMVRKYGLVGQS”, “soluble”. On to “AVVSTDEYVTRTNIYYHAGSSRLLAVGHPYYAIKKQDSNKIAVPKVSGLQYRVFRVKLPDPNKFGFPDTSFYDPASQRLVWACTGVEVGRGQPLGVGISGHPLLNKLDDTENSNKYVGNSGTDNRECISMDYKQTQLCLIGCRPPIGEHWGKGTPSNANQVKAGECPPLELLNTVLQDGDMVDTGFGAMDFTTLQANKSDVPLDICSSICKYPDYLKMVSEPYGDMLFFYLRREQMFVRHLFNRAGTVGETVPADLYIKGTTGTLPSTSYFPTPSGSMVTSDAQIFNKPYWLQRAQGHNNGICWSNQLFVTVVDTTRSTNMSVCSAVSSSDSTYKNDNFKEYLRHGEEYDLQFIFQLCKITLTADVMTYIHSMNPSILEDWNGGSGGDPLKNYTFWEVDLKEKFSADLDQFPLGRKFLLQAGL”, for which the “soluble on expression in E. coli” value is on record as “soluble”. Next, “CPEIEAQGNECLKEYGGDVGFGFCAPRIFPTICYTRCRENKGAKGGRCRWGQGSNVKCLCDFCGDTPQ”: “soluble”. As for “CRYVARNGFQGVIVQCETSDGDDIPAEDDREGPPLSRGVFYNDGYDERQGKLILGIFPTGQCPSPIGNGSGTATDVTGEPEKTFSGRGFGRTSPTGMMSSLGAQREMTGLYDLPTTNGNDGEKPADPNGEGRGFTNKNAGTSCTEANAHT”, the “soluble on expression in E. coli” value is recorded as “soluble”. Next, “CSLIPDYQRPEAPVAAAYPQGQAYGQNTGAAAVPAADIGWREFFRDPQLQQLIGVALENNRDLRVAALNVEAFRAQYRIQRADLFPRIGVDGSGTRQRLPGDLSTTGSPAISSQYGVTLGTTAWELDLFGRLRSLRDQALEQYLATEQAQRSAQTTLVASVATAYLTLKADQAQLQLTKDTLGTYQKSFDLTQRSYDVGVASALDLRQAQTAVEGARATLAQYTRLVAQDQNALVLLLGSGIPANLPQGLGLDQTLLTEVPAGLPSDLLQRRPDILEAEHQLMAANASIGAARAAFFPSISLTANAGTMSRQLSGLFDAGSGSWLFQPSINLPIFTAGSLRASLDYAKIQKDINVAQYEKAIQTAFQEVADGLAARGTFTEQLQAQRDLVKASDEYYQLADKRYRTGVDNYLTLLDAQRSLFTAQQQLITDRLNQLTSEVNLYKALGGGWNQQTVTQQQTAKKEDPQAHHHHHH”: “soluble”. Turning to “DAFTDQKIRQRYADLPGELHIIELEKDKNGLGLSLAGNKDRSRMSIFVVGINPEGPAAADGRMRIGDELLEINNQILYGRSHQNASAIIKTAPSKVKLVFIRNEDAVNQMA”, the “soluble on expression in E. coli” value is given as “soluble”.

In the case of “DEMVRFNPKKMSLKKEQVIKIIKIGAPAGLQGVVFSVSNVCIQSAINGFGTKAIAGSSAALNYEYFTYYVINAFNQTTVTFTSQNYGAKKLERCKKA”, the “soluble on expression in E. coli” value is “not soluble”. The result for “DGDRLRQFLENNKKVLRFWCVWDERTTMYGDRRPYVLHYYLEDDSVEVLEINENNSGRDPFPVFLKRGPLPKVAVKTNTTLNPKFRKDQCYNAGDFRLGLFINVLGRDFYLHDADTFTKQWYKDNLGYTDEE” reads “not soluble”. The result for “DGYHLLQELGAIELAGDGEAAEAGGGGAAFRLTRTGQELAKLPVDPRIGRMILAAREQQCLAEMLIIAAALSVQDPRDRPMAEREAAESAHAKFADDKSEFLSFL” reads “not soluble”; that for “DIKVTPGTSELVEQILALLSRYLSSYIHVLNKFISHLRRVATLRFERTTLIKFVKKLRFYNDSVLSYNASEFINEGKNELDPEADSFDKVILPIASMFVKSVETFDLLNYYLTQSLQKEILSKTLNEDLTLTAESILAIDDTYNHFVKFSQWMIESLRIGSNLLDLEVVQFAIKSADEDGTNIGETDNIFLQEILPVNSEEEFQTLSAAWHSILDGKLSALDEEFDVVATKWHD”, “soluble”; that for “DIQMTQSPASLSASVGETVTITCRASENIYSYLAWYQQKQGKSPQLLVYNAKTLAEGVPSRFSGSGSGTQFSLKINSLQPEDFGSYYCQHHYGTPFTFGSGTKLEIKRHHHHHH”, “soluble”. Consider “DIQMTQSPSSLSASVGDRVTITCQASQDITNHLNWYQQKPGKAPKLLIYDASNLETGVPSRFSGRGSGTHFTFTISSLQPADIATYYCQEYDYLPQTFGGGTKVEIK”, for which the “soluble on expression in E. coli” value is on record as “soluble”. Next, “DIVMTQSPDSLAVSPGERATINCKSSQNLLDSSFDTNTLAWYQQKPGQPPKLLIYWASSRESGVPDRFSGSGSGTDFTLTISSLQAEDVAVYYCQQYYSTPPTFGGGTKVEIKR”: “soluble”; “DKFNQFINRVLSHEGGYANHPKDPGGETNWGITKRTAQANGYNGSMRAMTREQAISIYRKAFWERYRADQMPEAVAFQFFDACVNHGYGNAARMLQRAAGVPDDGVIGAVSLKAINSLPENDLLLRFNAERLVFYTKLGTFTSFGKGWVRRVAQN”: “not soluble”.

The values are drawn from the DeepSol protein solubility set.
